Reference: paper PMC5818509, “Crystal structure of the hydroxylaminopurine resistance protein, YiiM, and its putative molybdenum cofactor-binding catalytic site” (Scientific Reports, 2018)

Target: the molecule itself
Test: SEC; gel filtration, Superdex 200 10/300, room temperature, 20 mM Tris pH 8.0, 150 mM NaCl, 5 mM β-mercaptoethanol; BL21-expressed and TP1000-expressed proteins

B1: Escherichia coli YiiM (natural protein)
chain: MRYPVDVYTGKIQAYPEGKPSAIAKIQVDGELMLTELGLEGDEQAEKKVHGGPDRALCHYPREHYLYWAREFPEQAELFVAPAFGENLSTDGLTESNVYMGDIFRWGEALIQVSQPRSPCYKLNYHFDISDIAQLMQNTGKVGWLYSVIAPGKVSADAPLELVSRVSDVTVQEAAAIAWHMPFDDDQYHRLLSAAGLSKSWTRTMQKRRLSGKIEDFSRRLWGK
notes: YiiM, a MOSC family protein of Escherichia coli; gene amplified by PCR from E. coli genomic DNA; calculated molecular weight 25.9 kDa; The BL21- and the TP1000-expressed protein are written as one molecule (both behaved alike); the crystal was grown from the TP1000-expressed protein; also called ecYiiM; ecYiiM^Pi (phosphate complex in the crystal); source: E. coli BL21 (DE3) (pET49b) and E. coli …
stoichiometry N: 2
